The target of assay [1] is rat PTH2 receptor (rat, UniProt P70555 25-546). Briefly: cell-based or functional assay.
Assay [2] concerns the target T1, human glucagon receptor (human, UniProt P47871 26-477).
T1 construct: whole, on cells
Kind of assay: displacement of [125I]glucagon, intact COS-7 cells. Background: Displacement assays read how much labelled ligand stays bound in the presence of the test substance.

Chain of rat PTH2 receptor (P70555 25-546): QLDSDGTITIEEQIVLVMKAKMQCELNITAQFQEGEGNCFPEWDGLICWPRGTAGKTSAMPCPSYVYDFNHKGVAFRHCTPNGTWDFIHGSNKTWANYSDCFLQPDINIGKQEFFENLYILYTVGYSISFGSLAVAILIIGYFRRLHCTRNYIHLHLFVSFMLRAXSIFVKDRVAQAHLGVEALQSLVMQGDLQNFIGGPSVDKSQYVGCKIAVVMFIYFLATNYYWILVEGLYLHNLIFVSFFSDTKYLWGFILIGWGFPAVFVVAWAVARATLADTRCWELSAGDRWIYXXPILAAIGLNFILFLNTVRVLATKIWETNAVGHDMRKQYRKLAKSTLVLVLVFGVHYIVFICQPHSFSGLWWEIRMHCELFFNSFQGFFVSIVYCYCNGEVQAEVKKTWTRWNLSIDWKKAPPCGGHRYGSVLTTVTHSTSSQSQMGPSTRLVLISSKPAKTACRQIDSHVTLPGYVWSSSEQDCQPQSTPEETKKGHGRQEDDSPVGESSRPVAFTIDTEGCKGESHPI
T1 sequence (P47871 26-477): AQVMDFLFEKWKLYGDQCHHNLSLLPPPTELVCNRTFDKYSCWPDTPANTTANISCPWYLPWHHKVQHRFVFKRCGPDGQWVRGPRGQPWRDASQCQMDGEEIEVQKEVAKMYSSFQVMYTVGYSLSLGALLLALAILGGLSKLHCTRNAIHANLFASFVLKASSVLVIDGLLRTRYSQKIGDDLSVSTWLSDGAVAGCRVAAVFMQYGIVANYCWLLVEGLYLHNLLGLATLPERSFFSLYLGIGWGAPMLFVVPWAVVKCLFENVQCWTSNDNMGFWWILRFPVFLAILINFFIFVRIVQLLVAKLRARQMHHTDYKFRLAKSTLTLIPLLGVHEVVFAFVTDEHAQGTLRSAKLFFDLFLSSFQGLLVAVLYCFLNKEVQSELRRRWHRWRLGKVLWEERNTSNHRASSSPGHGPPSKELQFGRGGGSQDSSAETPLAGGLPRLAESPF

B1: tuberinfundibular peptide of 39 residues (TIP39), bovine sequence, synthetic (peptide)
peptide: SLALADDAAFRERARLLAALERRHWLNSYMHKLLVLDAP
notes: Chemically synthesized 39 residue peptide (Anaspec or Biomolecules Midwest); also called bTIP39; synthetic hypothalamic peptide
Regarding B1, the “maximal effect against PTH” value in assay [1] was approximately 3 fold. For the same molecule, in assay [2], the binding result is “no binding (tested: 1 µM)”.

The values above are taken from patent US20030032096A1 (US Dept. of Health and Human Services, published 2003).
